According to patent US20110159013A1 (MERCK, published 2011):

Tests used:
[1] = target: T1, amyloid beta (1-40) peptide; test: solution equilibrium titration; free IgG by ELISA; GraFit
T1 construct: Residues 1-40 counted on the Aβ1-42 entry; used as monomer-like control; also called Aβ1-40; Aβ1-40 monomer

[2] = target: ADDL fibril preparation (Aβ1-42 fibrils made in 10 mM hydrochloric acid); test: as above
[3] = target: T2, Aβ-derived diffusible ligands (synthetic ADDLs), soluble oligomers of amyloid β1-42; test: as above
T2 construct: number of copies varies (trimer, tetramer, 12-24 mer)

[4] = target: amyloid β1-42 peptide (Aβ1-42); test: cell-based or functional assay

Kd [1]: 27.6 nM
Kd [2]: 10.5 nM
Kd [3]: 2.09 nM
IC50 (read off the curve) [4]: ~100 nM
B1: murine anti-ADDL monoclonal antibody 2B4 (antibody, mouse IgG2b, V domains shown)
VH: not shown
VL: DVVMTQTPLSLPVSLGDQASISCRSSQSLVHSNGNTYLHWYLQKPGQSPKLLIYKVSNRFFGVPDRFSGSGSGTDFTLKISRVEAEDLGVYFCSQTTYVPLTFGAGTKLELK
